From paper doi:10.1101/2021.08.09.455701 (bioRxiv, 2021)

Key:
[1] = target: RNase J K649Q (His-tagged) (Helicobacter pylori) (UniProt P56185); assay: AUC
[2] = target: RNase J (His-tagged, wild type) (Helicobacter pylori) (UniProt P56185); assay: AUC
[3] = target: RNase J K649A (His-tagged) (Helicobacter pylori) (UniProt P56185); assay: AUC
[4] = target: RNase J D185A (His-tagged) (Helicobacter pylori) (UniProt P56185); assay: AUC
crystal structure = target: the molecule itself; assay: crystal structure

RNase J K649Q (His-tagged) (from UniProt P56185 1-689) (enzyme)
stoichiometry N [1]: 2

RhpA (His-tagged) (from UniProt O25029 1-492) (enzyme)
stoichiometry N [2]: 1 RNase J:RhpA

RNase J K649A (His-tagged) (from UniProt P56185 1-689) (enzyme)
stoichiometry N [3]: 2

RNase J D185A (His-tagged) (from UniProt P56185 1-689) (enzyme)
stoichiometry N [4]: 2

RNase J (His-tagged, wild type) (from UniProt P56185 1-689) (enzyme)
percent of the protein as dimer [2]: 40% | percent of the protein as monomer [2]: 60% | stoichiometry N [2]: 2

B1: RNase J residues 139-691 (crystallised construct) (domain or fragment, H. pylori strain 26695, UniProt P56185 137-689, looked up)
chain: SKASVKITPLGGLGEIGGNMMVIETPKSAIVIDAGMSFPKEGLFGVDILIPDFSYLHQIKDKIAGIIITHAHEDHIGATPYLFKELQFPLYGTPLSLGLIGSKFDEHGLKKYRSYFKIVEKRCPISVGEFIIEWIHITHSIIDSSALAIQTKAGTIIHTGDFKIDHTPVDNLPTDLYRLAHYGEKGVMLLLSDSTNSHKSGTTPSESTIAPAFDTLFKEAQGRVIMSTFSSNIHRVYQAIQYGIKYNRKIAVIGRSMEKNLDIARELGYIHLPYQSFIEANEVAKYPDNEILIVTTGSQGETMSALYRMATDEHRHISIKPNDLVIISAKAIPGNEASVSAVLNFLIKKEAKVAYQEFDNIHVSGHAAQEEQKLMLRLIKPKFFLPVHGEYNHVARHKQTAISCGVPEKNIYLMEDGDQVEVGPAFIKKVGTIKSGKSYVDNQSNLSIDTSIVQQREEVASAGVFVATIFVNKNKQALLESSQFSSLGLVGFKDEKPLIKEIQGGLEVLLKSSNAEILNNPKKLEDHTRNFIRKALFKKFRKYPAIICHAHSF
binding result (crystal structure): binds
